Paper PMC8449268, “Activity of the yeast vacuolar TRP channel TRPY1 is inhibited by Ca^2+–calmodulin binding” (The Journal of Biological Chemistry, 2021)
Values belong to the binder of their own block, whether it stands above or below them.

Columns and labels:
Conditions in all cases: both partners purified
[1] = target: T1, GST-Cmd1 (yeast calmodulin fused to glutathione-S-transferase) (S. cerevisiae (yeast), UniProt P06787 1-147); experiment: peptide or protein array; 20-mer TRPY1 peptides shifted by five residues on cellulose membrane (16 nmoles per spot); ^14C-GST-Cmd1 (60 cpm per spot) in 50 mM Tris pH 7.5, 150 mM NaCl, 0.1% Triton X-100, 2 mM CaCl2, 4 °C, 16 h; autoradiography
T1 construct: Yeast calmodulin Cmd1, wild type; In the peptide scan the same fusion protein was used ^14C-labelled (^14C-GST-Cmd1); also called GST-fused Cmd1; yeast CaM; source: E. coli, purified (glutathione sepharose)
T1 sequence (P06787 whole entry, the tested form may be a part): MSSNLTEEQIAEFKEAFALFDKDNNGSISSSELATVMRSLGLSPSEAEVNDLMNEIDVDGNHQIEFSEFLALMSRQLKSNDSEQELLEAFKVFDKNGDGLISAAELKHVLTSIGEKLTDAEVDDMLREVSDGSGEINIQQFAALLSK

[2] = target: T1, GST-Cmd1 (yeast calmodulin fused to …); experiment: pull-down; MBP-fused TRPY1 fragments (12 ug) immobilised on amylose resin, incubated with 12 ug GST-Cmd1 or GST-Cmd1–6 with 2 mM Ca2+, 60 min, 4 °C; bound protein detected by anti-GST blot
6His-Cmd1 = target: T2, 6His-Cmd1 (S. cerevisiae (yeast), UniProt P06787 1-147); experiment: pull-down; GST, GST-Cmd1 or GST-TRPY1-C (12 ug) immobilised on glutathione sepharose; 6His-Sumo-TRPY1-N or 12 ug 6His-Cmd1 added, 2 mM CaCl2, 60 min, 4 °C; SDS-PAGE and Coomassie blue staining
T2 construct: Yeast calmodulin Cmd1, wild type; also called yeast CaM; source: E. coli, purified (Ni–NTA agarose)
T2 sequence (P06787 whole entry): as the sequence (P06787 whole entry, the tested form may be a part) above

- binding result [1]: binds
B1: TRPY1 C-terminal peptide of the peptide scan, residues 527–546 (peptide, UniProt Q12324 527-546, looked up)
peptide: VYSPFLLLISVKETREARRI
notes: source: synthetic peptide, spot-synthesised on cellulose membrane

- binding result [2]: binds
B2: MBP-TRPY1-C (cytosolic C terminus of TRPY1 fused to maltose-binding protein) (domain or fragment, S. cerevisiae, UniProt Q12324 538-675, looked up)
chain: KETREARRIKYNRMKRLNDDANEYDTPWDLTDGYLDDDDGLFSDNRNSGMRATQLKNSRSLKLQRTAEQEDVHFKVPKKWYKNVKKCSPSFEQYDNDDTEDDAGEDKDEVKELTKKVENLTAVITDLLEKLDIKDKKE
notes: TRPY1 (Yvc1, gene YVC1), Saccharomyces cerevisiae; cytosolic C terminus, printed as 137 amino acids, residues 538-675 (K538 to E675); The limits 538-675 are printed for GST-TRPY1-C and for 'the complete recombinant TRPY1 C terminus'; also called MBP-fused TRPY1-C; Yvc1 C terminus; source: E. coli, purified (amylose resin)

- binding result (6His-Cmd1): binds
B3: GST-TRPY1-C (538–675) (domain or fragment, S. cerevisiae, UniProt Q12324 538-675, looked up)
chain: B2 chain
notes: TRPY1 (Yvc1), Saccharomyces cerevisiae; cytosolic C terminus, printed as 137 amino acids, residues 538-675 (K538 to E675); also called GST-tagged TRPY1-C; source: E. coli, purified (glutathione sepharose)
